Experimental data: patent US7842460

T1: Ubiquitin-PLA2mX fusion, Q9QXX3
T1 chain: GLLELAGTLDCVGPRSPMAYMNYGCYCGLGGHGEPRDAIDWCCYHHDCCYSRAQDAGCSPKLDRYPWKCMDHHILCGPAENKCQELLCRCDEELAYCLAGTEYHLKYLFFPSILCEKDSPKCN

T2: (yeast SUMO) Smt3-PLA2mX fusion, Q9QXX3
T2 chain: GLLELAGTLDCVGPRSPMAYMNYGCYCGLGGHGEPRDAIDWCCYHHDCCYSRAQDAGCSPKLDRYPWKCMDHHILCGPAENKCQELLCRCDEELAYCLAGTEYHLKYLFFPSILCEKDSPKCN

T3: Smt3-3Dpol (Mahoney strain) fusion from pET24-6H-SUMO-3Dpol, P03300
T3 chain: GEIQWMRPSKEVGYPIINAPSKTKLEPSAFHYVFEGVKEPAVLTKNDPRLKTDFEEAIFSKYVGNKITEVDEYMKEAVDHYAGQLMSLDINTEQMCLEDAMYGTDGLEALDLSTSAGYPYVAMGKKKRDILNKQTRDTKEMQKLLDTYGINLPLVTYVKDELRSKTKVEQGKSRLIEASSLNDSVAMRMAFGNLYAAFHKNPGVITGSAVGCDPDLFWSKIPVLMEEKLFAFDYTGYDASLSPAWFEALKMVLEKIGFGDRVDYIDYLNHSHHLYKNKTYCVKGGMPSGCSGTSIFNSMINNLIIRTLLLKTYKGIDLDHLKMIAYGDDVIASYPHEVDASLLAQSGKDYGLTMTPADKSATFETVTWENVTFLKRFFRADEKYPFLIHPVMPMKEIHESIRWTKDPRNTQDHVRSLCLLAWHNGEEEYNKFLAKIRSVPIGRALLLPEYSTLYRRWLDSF

T4: SUMO-GPATase fusion protein from pET24-6H-SUMO-GPATase, P0AG16
T4 chain: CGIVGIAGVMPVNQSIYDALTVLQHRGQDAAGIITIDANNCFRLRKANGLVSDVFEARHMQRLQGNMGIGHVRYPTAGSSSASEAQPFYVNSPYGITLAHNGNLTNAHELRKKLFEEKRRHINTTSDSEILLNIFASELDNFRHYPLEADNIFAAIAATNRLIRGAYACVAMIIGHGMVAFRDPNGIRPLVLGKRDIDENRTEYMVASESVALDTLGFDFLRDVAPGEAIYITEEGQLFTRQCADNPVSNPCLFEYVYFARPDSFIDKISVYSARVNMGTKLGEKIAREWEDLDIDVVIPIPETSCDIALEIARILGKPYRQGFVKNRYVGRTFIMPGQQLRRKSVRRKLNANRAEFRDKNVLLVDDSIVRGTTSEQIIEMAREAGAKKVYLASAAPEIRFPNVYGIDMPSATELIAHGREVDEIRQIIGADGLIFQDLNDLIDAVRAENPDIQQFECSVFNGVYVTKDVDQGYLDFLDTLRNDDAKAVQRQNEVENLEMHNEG


How the values were obtained:
[1] = biological target: T1, Ubiquitin-PLA2mX fusion, Q9QXX3
[2] = biological target: human SUMO3-PLA2mX fusion, P55854
[3] = biological target: human Nedd8-PLA2mX fusion, Q15843
[4] = biological target: T2, (yeast SUMO) Smt3-PLA2mX fusion, Q9QXX3
[5] = biological target: T3, Smt3-3Dpol (Mahoney strain) fusion from …
[6] = biological target: T4, SUMO-GPATase fusion protein from …
[7] = biological target: Smt3-tryptase (6xHis-SUMO-human tryptase fusion, secreted from Sf9 insect cells) [SUMO: Q12306]
Sequence of Smt3-tryptase (6xHis-SUMO-human tryptase fusion, secreted from Sf9 insect cells) [SUMO: Q12306] (Q12306 whole entry, looked up, the tested form may be a part): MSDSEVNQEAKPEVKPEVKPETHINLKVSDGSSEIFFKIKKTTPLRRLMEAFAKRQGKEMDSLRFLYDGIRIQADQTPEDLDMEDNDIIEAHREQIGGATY

Sequence of human Nedd8-PLA2mX fusion, Q15843 (Q15843 whole entry, looked up, the tested form may be a part): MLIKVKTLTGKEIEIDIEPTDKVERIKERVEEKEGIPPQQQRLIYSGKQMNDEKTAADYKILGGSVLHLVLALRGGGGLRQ

| Protein | cleavage of the fusion by SDS-PAGE [1] | Ratio of PLA2 activity, fusion with isopeptidase over fusion without [2] | cleavage of the fusion by SDS-PAGE (10 ug fusion, 1 ug SENP2) [2] | Ratio of PLA2 activity, fusion with isopeptidase over fusion without [3] | cleavage of the fusion by SDS-PAGE [3] | Ratio of PLA2 activity, fusion with isopeptidase over fusion without [4] | cleavage of the fusion by SDS-PAGE (10 ug fusion, 1 ug Ulp-1, one hour) [4] | cleavage of the fusion by SDS-PAGE and Coomassie Blue staining [5] | GPATase activity by coupled glutamate dehydrogenase assay, absorbance at 363 nm [6] | glutaminase activity of GPATase (coupled GDH assay) [6] | tryptase activity, peptidyl chromogenic substrate, absorption at 410 nm [7] |
| --- | --- | --- | --- | --- | --- | --- | --- | --- | --- | --- | --- |
| SENP2 isopeptidase (protein) DLLELTEDMEKEISNALGHGPQDEILSSAFKLRITRGDIQTLKNYHWLNDEVINFYMNLLVERNKKQGYPALHVFSTFFYPKLKSGGYQAVKRWTKGVNLFEQEIILVPIHRKVHWSLVVIDLRKKCLKYLDSMGQKGHRICEILLQYLQDESKTKRNSDLNLLEWTHHSMKPHEIPQQLNGSDCGMFTCKYADYISRDKPITFTQHQMPLFRKKMVWEILHQQLL | The SENP2 enzyme failed to cleave the Ubiqutin-PLA2mX fusion protein | 9.95 | the appropriately sized hSUMO3 (21 kDa) and PLA2mX (14 kDa) bands were observed, indicating complete cleavage of the fusion protein | – | – | – | – | – | – | – | – |
| Den1, a Nedd8-specific isopeptidase (protein) MDPVVLSYMDSLLRQSDVSLLDPPSWLNDHIIGFAFEYFANSQFHDCSDHVSFISPEVTQFIKCTSNPAEIAMFLEPLDLPNKRVVFLAINDNSNQAAGGTHWSLLVYLQDKNSFFHYDSHSRSNSVHAKQVAEKLEAFLGRKGDKLAFVEEKAPAQQNSYDCGMYVICNTEALCQNFFRQQTESLLQLLTPAYITKKRGEWKDLITTLAKK | – | – | – | 3.38 | the Nedd8-fusion protein became cleaved and 14 kDa PLA2mX and 9 kDa Nedd8 bands appear | – | – | – | – | – | – |
| C-terminal His-tagged SUMO protease 1, ULP1 (403-621)p (protein) LVPELNEKDDDQVQKALASRENTQLMNRDNIEITVRDFKTLAPRRWLNDTIIEFFMKYIEKSTPNTVAFNSFFYTNLSERGYQGVRRWMKRKKTQIDKLDKIFTPINLNQSHWALGIIDLKKKTIGYVDSLSNGPNAMSFAILTDLQKYVMEESKHTIGEDFDLIHLDCPQQPNGYDCGIYVCMNTLYGSADAPLDFDYKDAIRMRRFIAHLILTDALK | The yeast ULP1 enzyme failed to cleave the Ubiquitin-PLA2mX fusion protein | – | – | – | – | 7.04 | complete cleavage of the reporter fusion protein to yield the separate constituents, Smt3 (at 21 kDa) and 14 kDa PLA2mX | resulted in 100% of cleavage of 3Dpol | there was an increase is absorbance at the OD 363 reading ... In the absence of Ulp1, this increase of absorbance did not occur | at least a 10-fold increase in the glutaminase activity of GPATase | augmented tryptase activity was measured |
